# Measurements from patent publication US20040234530A1 (WISCONSIN ALUMNI RESEARCH FOUNDATION, published 2004).
# Biological target: T1, StcE′ E435D-His (as StcE′-His with glutamic to aspartic acid at residue 435; from pTB5, strain WAM2804) (E. coli O157:H7 EDL933 (plasmid pO157), UniProt O82882 36-898)
# T1 sequence: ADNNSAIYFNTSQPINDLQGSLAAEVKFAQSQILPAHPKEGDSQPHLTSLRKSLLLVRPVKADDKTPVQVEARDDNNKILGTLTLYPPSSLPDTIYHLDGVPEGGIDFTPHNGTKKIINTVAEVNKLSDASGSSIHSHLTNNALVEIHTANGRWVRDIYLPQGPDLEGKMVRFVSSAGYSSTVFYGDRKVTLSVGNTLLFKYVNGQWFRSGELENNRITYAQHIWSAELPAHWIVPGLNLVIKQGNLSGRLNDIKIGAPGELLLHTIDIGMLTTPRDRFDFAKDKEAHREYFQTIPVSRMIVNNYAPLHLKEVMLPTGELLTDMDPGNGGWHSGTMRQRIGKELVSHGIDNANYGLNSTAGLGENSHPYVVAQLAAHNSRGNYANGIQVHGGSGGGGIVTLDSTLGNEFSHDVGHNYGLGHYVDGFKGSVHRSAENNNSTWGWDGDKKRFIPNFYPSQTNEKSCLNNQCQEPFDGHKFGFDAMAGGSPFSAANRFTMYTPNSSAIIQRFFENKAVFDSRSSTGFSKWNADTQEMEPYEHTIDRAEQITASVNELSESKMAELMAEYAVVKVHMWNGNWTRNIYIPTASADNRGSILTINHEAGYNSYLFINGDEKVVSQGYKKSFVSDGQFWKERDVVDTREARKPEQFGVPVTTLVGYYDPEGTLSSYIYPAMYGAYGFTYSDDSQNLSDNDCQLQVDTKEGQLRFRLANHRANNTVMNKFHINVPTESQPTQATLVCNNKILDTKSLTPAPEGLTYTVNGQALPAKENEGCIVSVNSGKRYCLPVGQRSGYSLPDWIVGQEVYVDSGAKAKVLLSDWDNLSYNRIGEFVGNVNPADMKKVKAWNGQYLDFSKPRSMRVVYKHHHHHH
binder,measurement,value
"C1-esterase inhibitor (human plasma protease C1 inhibitor), purified or in human serum (other, UniProt P05155 23-500, looked up, heavily glycosylated N-terminal domain) NPNATSSSSQDPESLQDRGEGKVATTVISKMLFVEPILEVSSLPTTNSTTNSATKITANTTDEPTTQPTTEPTTQPTIQPTQPTTQLPTDSPTQPTTGSFCPGPVTLCSDLESHSTEAVLGDALVDFSLKLYHAFSAMKKVETNMAFSPFSIASLLTQVLLGAGENTKTNLESILSYPKDFTCVHQALKGFTTKGVTSVSQIFHSPDLAIRDTFVNASRTLYSSSPRVLSNNSDANLELINTWVAKNTNNKISRLLDSLPSDTRLVLLNAIYLSAKWKTTFDPKKTRMEPFHFKNSVIKVPMMNSKKYPVAHFIDQTLKAKVGQLQLSHNLSLVILVPQNLKHRLEDMEQALSPSVFKAIMEKLEMSKFQPTLLTLPRIKVTTSQDMLSIMEKLEFFDFSYDLNLCGLTEDPDLQVSAMQHQTVLELTETGVEAAAASAISVARTLLVFEVQQPFLFVLWDQQHKFPVFMGRVYDPRA",fold level of C1-INH on erythrocyte surfaces against that in the presence of StcE′-His,22 fold
